Test results published in patent USRE47123 (Sanofi, dated 2018).

Legend:
human EphA2 receptor [1] = target: T1, human EphA2 receptor (human, UniProt P29317 24-976); assay: FACS titration on cells with human EphA2, same protocol (apparent KD)
T1 construct: whole, on cells; also called hu-EphA2

human EphA2 receptor [2] = target: T1, human EphA2 receptor; assay: FACS titration on HUVEC cells (apparent KD)
[3] = target: T2, monkey EphA2 on VERO cells (monkey (Cercopithecus aethiops)); assay: FACS titration on monkey VERO cells, non-linear regression for one-site binding (apparent KD)
T2 construct: whole, on cells

human EphA2 receptor [4] = target: T1, human EphA2 receptor; assay: FACS titration on cells with human EphA2, non-linear regression for one-site binding (apparent KD)
murine EphA2 receptor = target: T3, murine EphA2 receptor (murine, UniProt Q03145 26-977); assay: FACS, cells over-expressing murine EphA2
T3 construct: whole, on cells; also called mu-EphA2

human EphA2 receptor [5] = target: T1, human EphA2 receptor; assay: FACS titration on HUVEC cells, non-linear regression for one-site binding (apparent KD)

T1 sequence (P29317 24-976): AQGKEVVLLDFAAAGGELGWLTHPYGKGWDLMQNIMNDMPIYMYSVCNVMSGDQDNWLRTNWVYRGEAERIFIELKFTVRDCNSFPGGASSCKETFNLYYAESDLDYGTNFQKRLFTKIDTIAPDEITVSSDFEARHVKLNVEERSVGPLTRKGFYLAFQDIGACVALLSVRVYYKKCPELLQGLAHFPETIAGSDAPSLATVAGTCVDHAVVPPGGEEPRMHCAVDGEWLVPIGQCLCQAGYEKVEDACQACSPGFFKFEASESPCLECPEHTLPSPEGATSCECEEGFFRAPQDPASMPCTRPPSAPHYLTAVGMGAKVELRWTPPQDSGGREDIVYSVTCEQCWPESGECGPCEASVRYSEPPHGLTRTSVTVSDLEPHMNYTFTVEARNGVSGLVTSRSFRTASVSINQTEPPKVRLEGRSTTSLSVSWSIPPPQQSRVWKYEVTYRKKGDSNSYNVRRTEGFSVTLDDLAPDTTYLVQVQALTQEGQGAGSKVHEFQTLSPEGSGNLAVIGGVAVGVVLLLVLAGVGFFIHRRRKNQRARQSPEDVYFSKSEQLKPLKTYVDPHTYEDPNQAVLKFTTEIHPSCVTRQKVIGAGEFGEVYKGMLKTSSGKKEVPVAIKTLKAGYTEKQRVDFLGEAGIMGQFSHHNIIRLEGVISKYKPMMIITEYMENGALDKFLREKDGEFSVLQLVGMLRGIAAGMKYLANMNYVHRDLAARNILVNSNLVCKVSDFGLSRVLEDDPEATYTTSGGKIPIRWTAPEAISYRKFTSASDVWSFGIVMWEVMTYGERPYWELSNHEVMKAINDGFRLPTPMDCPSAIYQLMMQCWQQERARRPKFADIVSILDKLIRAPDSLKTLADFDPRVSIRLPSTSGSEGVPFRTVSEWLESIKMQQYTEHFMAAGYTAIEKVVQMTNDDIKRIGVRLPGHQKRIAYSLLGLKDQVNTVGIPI
T3 sequence (Q03145 26-977): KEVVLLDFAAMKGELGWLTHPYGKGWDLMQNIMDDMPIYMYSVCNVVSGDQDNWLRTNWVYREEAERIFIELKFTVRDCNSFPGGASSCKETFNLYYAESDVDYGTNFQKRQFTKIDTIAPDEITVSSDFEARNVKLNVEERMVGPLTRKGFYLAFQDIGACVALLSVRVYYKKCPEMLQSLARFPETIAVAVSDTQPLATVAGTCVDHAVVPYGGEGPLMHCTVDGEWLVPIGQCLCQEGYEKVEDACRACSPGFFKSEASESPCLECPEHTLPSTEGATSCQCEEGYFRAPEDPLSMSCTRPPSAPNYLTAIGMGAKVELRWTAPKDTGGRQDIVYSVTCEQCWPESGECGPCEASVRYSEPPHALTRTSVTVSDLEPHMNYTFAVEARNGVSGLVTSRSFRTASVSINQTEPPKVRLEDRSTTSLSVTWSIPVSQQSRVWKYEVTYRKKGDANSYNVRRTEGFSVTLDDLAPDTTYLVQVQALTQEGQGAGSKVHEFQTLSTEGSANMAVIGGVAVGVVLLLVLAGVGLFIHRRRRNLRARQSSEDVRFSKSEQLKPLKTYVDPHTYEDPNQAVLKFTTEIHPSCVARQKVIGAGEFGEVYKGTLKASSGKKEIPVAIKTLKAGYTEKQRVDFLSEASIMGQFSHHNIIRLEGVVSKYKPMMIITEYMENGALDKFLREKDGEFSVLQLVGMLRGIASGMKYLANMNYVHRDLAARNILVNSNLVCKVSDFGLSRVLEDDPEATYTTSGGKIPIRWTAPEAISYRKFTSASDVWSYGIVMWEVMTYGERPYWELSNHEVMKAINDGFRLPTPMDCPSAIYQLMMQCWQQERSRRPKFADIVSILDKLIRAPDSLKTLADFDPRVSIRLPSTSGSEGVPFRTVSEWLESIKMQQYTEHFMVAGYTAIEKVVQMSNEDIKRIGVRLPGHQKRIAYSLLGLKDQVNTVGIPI

Kd (human EphA2 receptor [1]) [nM]	Kd (human EphA2 receptor [2]) [nM]	Kd [3] [nM]	Kd (human EphA2 receptor [4]) [nM]	binding result (murine EphA2 receptor)	Kd (human EphA2 receptor [5]) [nM]	Binder
0.18						murine anti-EphA2 monoclonal antibody EphA2-N1 (antibody, V domains shown, Murine monoclonal antibody from hybridoma PTA-8407) VH: EVQLQQSGPDLVKPGASVKISCKASGYRFTEYNMHWMKQSHGESLEWIGYIYPYNGDTGYRQKFKNMATLTADISSNTAYMELRSLTSDDSAVYFCARWGYGSGGGFTYWGQGTLVTVSA VL: DIVLTQSPGSLAVSLGQRATISCRASESVDTYGNSFMHWYQQKAGQPPRLLIYRASNLESGIPARFSGSGSRTDFTLTINPVEADDVATYYCQQSNEDPLTFGAGTKLELKR
	0.01	0.05	0.07			murine anti-EphA2 monoclonal antibody 37.1F5 (antibody, V domains shown, Purified murine monoclonal antibody from hybridoma PTA-7661; also called mu37.1F5; 37.1F5 antibody) VH: EVQLQQSGPELVKPGASMKISCRASGYSFTGYTMNWVRQSHGKNLEWIGLINPHNGGSSYNLKFKGKATLTVDKSSSTAYMELLSLTSEDSAVYYCVRWGDYGSFAYWGQGTLVTVSA VL: DIVLTQSPASLAVSLGQRATISCRASESVDTFGYSFIYWYQQKPGQPPRLLIYRASNLESGIPARFSGSGSRTDFTLTINPVEADDVATYYCQQSNEDPPTFGGGTKLEIKR
	0.06	0.07	0.14	binds		murine anti-EphA2 monoclonal antibody 53.2H11 (antibody, V domains shown, Purified murine monoclonal antibody from hybridoma PTA-7662; also called 53.2H11 antibody) VH: EVQLQQSGPELVKPGASVKISCKASGYSFTAYYMHWVKQSHVKSLEWIGLVNPYNGFSSYNQNFEDKASLTVDKFSSTAYMELHSLTSEDSAVYYCAREFYGYRYFDVWGAGTAVTVSS VL: not shown
		0.15		binds	0.3	murine anti-EphA2 monoclonal antibody 37.3D7 (antibody, V domains shown, Purified murine monoclonal antibody from hybridoma PTA-7660; also called mu37.3D7; 37.3D7 antibody) VH: QVQLQQPGSELVRPGASVQLSCKASGYSFTSYWMHWVRQRPGQGLQWIGNIYPGTGNTNYDEKFMNKATLTVDTYSSTTYMQLSSLTSEDSAVYYCARWGLVRYFFAMDYWGQGTSVTVSS VL: QIVLTQSPAIMSASLGERVTMTCTVSSSVNSSYLHWYQQKPGSSPKLWIYSTSNLPSGVPARFSGSGSGTSYSLTISTIESEDAATYYCHQYHRSPQFTFGSGTKLEIKR
0.05						murine anti-EphA2 monoclonal antibody EphA2-N2 (antibody, V domains shown, Murine monoclonal antibody from hybridoma PTA-8408) VH: EVQLQQSGPELVKPGASVKISCKASGYTFTDYNMHWVKQSHGKSLEWIGFIYPYNGGTGYNQRFKNKATLTVDTSSSTAYMEVRSLTSEDSAVYFCARGYYYGRHFDYWGQGTTLTVSS VL: QIVLTQSPALMSASPGEKVTMTCSASSSVSYMYWYQQKPRSSPKPWIYITSNLASGVPARFSGSGSGTSYSLTISSMEAEDAATYYCQQWSSNPPTFGGGTKLEIKR
